The supplement of paper PMC9112550, “Optimization of the antimicrobial peptide Bac7 by deep mutational scanning” (BMC Biology, 2022)

What follows are sequences tested on Escherichia coli TOP10 (assay: shrunken log2 fold change of peptide-encoding DNA abundance (4.5 h post-induction vs induction); higher = less antimicrobial activity (less host growth inhibition)). Conditions: time post-induction: 4.5 h; library: site-saturation at positions 5, 18, 19, 20.
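Also: peptides expressed intracellularly from a pBAD plasmid library in pooled LB shake-flask culture, induced with 0.3% L-arabinose, DNA abundance read by NGS, three biological replicates, DESeq2 with apeglm shrinkage.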

Sequence | shrunken log2 fold change
RRIRFRPPRLPRPRPRPDVWPRP | 0.128
RRIRFRPPRLPRPRPRPDWGPRP | 0.00855
RRIRFRPPRLPRPRPRPDYLPRP | -0.159
RRIRFRPPRLPRPRPRPEANPRP | 0.666
RRIRFRPPRLPRPRPRPEARPRP | -0.137
RRIRFRPPRLPRPRPRPECDPRP | 0.248
RRIRFRPPRLPRPRPRPECEPRP | 0.639
RRIRFRPPRLPRPRPRPEDHPRP | 0.000834
RRIRFRPPRLPRPRPRPEDIPRP | 0.0107
RRIRFRPPRLPRPRPRPEDVPRP | -0.0294
RRIRFRPPRLPRPRPRPEEWPRP | -0.0208
RRIRFRPPRLPRPRPRPEGDPRP | 0.0402
RRIRFRPPRLPRPRPRPEHFPRP | -0.213
RRIRFRPPRLPRPRPRPEHMPRP | 0.0146
RRIRFRPPRLPRPRPRPEISPRP | -0.048
RRIRFRPPRLPRPRPRPEKDPRP | -0.227
RRIRFRPPRLPRPRPRPELLPRP | 0.146
RRIRFRPPRLPRPRPRPELNPRP | 0.164
RRIRFRPPRLPRPRPRPEMSPRP | 0.000731
RRIRFRPPRLPRPRPRPENGPRP | -0.166
RRIRFRPPRLPRPRPRPERFPRP | -0.104
RRIRFRPPRLPRPRPRPERPPRP | 0.415
RRIRFRPPRLPRPRPRPESWPRP | 0.53
RRIRFRPPRLPRPRPRPETIPRP | -0.103
RRIRFRPPRLPRPRPRPEVAPRP | -0.088

Sequence | shrunken log2 fold change
RRIRFRPPRLPRPRPRPEVCPRP | 0.00109
RRIRFRPPRLPRPRPRPEVDPRP | 0.084
RRIRFRPPRLPRPRPRPEVMPRP | -0.0905
RRIRFRPPRLPRPRPRPEVRPRP | 0.14
RRIRFRPPRLPRPRPRPEYEPRP | -0.211
RRIRFRPPRLPRPRPRPEYPPRP | -0.617
RRIRFRPPRLPRPRPRPFAGPRP | 0.0728
RRIRFRPPRLPRPRPRPFAWPRP | -0.0558
RRIRFRPPRLPRPRPRPFCFPRP | -0.343
RRIRFRPPRLPRPRPRPFCRPRP | -0.316
RRIRFRPPRLPRPRPRPFDYPRP | -0.111
RRIRFRPPRLPRPRPRPFEKPRP | -0.0749
RRIRFRPPRLPRPRPRPFESPRP | 0.0452
RRIRFRPPRLPRPRPRPFFKPRP | -0.251
RRIRFRPPRLPRPRPRPFFLPRP | -0.32
RRIRFRPPRLPRPRPRPFFNPRP | -0.313
RRIRFRPPRLPRPRPRPFGGPRP | -0.0524
RRIRFRPPRLPRPRPRPFLWPRP | -0.0874
RRIRFRPPRLPRPRPRPFMTPRP | -0.333
RRIRFRPPRLPRPRPRPFNKPRP | -0.729
RRIRFRPPRLPRPRPRPFNSPRP | -0.0372
RRIRFRPPRLPRPRPRPFPDPRP | -0.137
RRIRFRPPRLPRPRPRPFPYPRP | -0.445
RRIRFRPPRLPRPRPRPFQVPRP | -0.309
RRIRFRPPRLPRPRPRPFQWPRP | -0.507

Sequence | shrunken log2 fold change
RRIRFRPPRLPRPRPRPFRCPRP | -0.227
RRIRFRPPRLPRPRPRPFRRPRP | -0.0629
RRIRFRPPRLPRPRPRPFSEPRP | -0.0573
RRIRFRPPRLPRPRPRPFVFPRP | -0.454
RRIRFRPPRLPRPRPRPFVHPRP | -0.728
RRIRFRPPRLPRPRPRPFWNPRP | -0.00687
RRIRFRPPRLPRPRPRPFYEPRP | -0.886
RRIRFRPPRLPRPRPRPGAIPRP | -0.244
RRIRFRPPRLPRPRPRPGCMPRP | -0.178
RRIRFRPPRLPRPRPRPGCWPRP | 0.524
RRIRFRPPRLPRPRPRPGDAPRP | 0.158
RRIRFRPPRLPRPRPRPGDPPRP | 0.566
RRIRFRPPRLPRPRPRPGDWPRP | 0.666
RRIRFRPPRLPRPRPRPGEPPRP | 0.118
RRIRFRPPRLPRPRPRPGEYPRP | -0.114
RRIRFRPPRLPRPRPRPGFGPRP | 0.337
RRIRFRPPRLPRPRPRPGFNPRP | -0.22
RRIRFRPPRLPRPRPRPGHAPRP | 0.192
RRIRFRPPRLPRPRPRPGHFPRP | -0.24
RRIRFRPPRLPRPRPRPGIQPRP | -0.11
RRIRFRPPRLPRPRPRPGLDPRP | -0.0186
RRIRFRPPRLPRPRPRPGLNPRP | 0.207
RRIRFRPPRLPRPRPRPGMQPRP | 0.237
RRIRFRPPRLPRPRPRPGPEPRP | 0.103
RRIRFRPPRLPRPRPRPGPTPRP | 0.404

Sequence | shrunken log2 fold change
RRIRFRPPRLPRPRPRPGQAPRP | 0.0631
RRIRFRPPRLPRPRPRPGQYPRP | -0.0815
RRIRFRPPRLPRPRPRPGRGPRP | 0.607
RRIRFRPPRLPRPRPRPGRYPRP | -0.0275
RRIRFRPPRLPRPRPRPGTNPRP | -0.254
RRIRFRPPRLPRPRPRPGVHPRP | -0.0827
RRIRFRPPRLPRPRPRPGVWPRP | 0.507
RRIRFRPPRLPRPRPRPGWFPRP | 0.237
RRIRFRPPRLPRPRPRPGYQPRP | -0.0555
RRIRFRPPRLPRPRPRPHAGPRP | -0.024
RRIRFRPPRLPRPRPRPHCIPRP | -0.457
RRIRFRPPRLPRPRPRPHCLPRP | -0.377
RRIRFRPPRLPRPRPRPHEDPRP | 0.0846
RRIRFRPPRLPRPRPRPHGHPRP | -0.18
RRIRFRPPRLPRPRPRPHGPPRP | 0.11
RRIRFRPPRLPRPRPRPHIIPRP | -0.879
RRIRFRPPRLPRPRPRPHIMPRP | -0.709
RRIRFRPPRLPRPRPRPHITPRP | -0.734
RRIRFRPPRLPRPRPRPHIYPRP | -1.22
RRIRFRPPRLPRPRPRPHLEPRP | -0.425
RRIRFRPPRLPRPRPRPHLMPRP | -0.149
RRIRFRPPRLPRPRPRPHMKPRP | -0.585
RRIRFRPPRLPRPRPRPHMWPRP | -0.951
RRIRFRPPRLPRPRPRPHNRPRP | 0.0584
RRIRFRPPRLPRPRPRPHQNPRP | -0.182

Sequence | shrunken log2 fold change
RRIRFRPPRLPRPRPRPHRLPRP | 0.0835
RRIRFRPPRLPRPRPRPHSVPRP | 0.036
RRIRFRPPRLPRPRPRPHWFPRP | -0.0545
RRIRFRPPRLPRPRPRPHWYPRP | -0.343
RRIRFRPPRLPRPRPRPHYEPRP | -0.0922
RRIRFRPPRLPRPRPRPHYKPRP | -0.408
RRIRFRPPRLPRPRPRPIAQPRP | -0.0298
RRIRFRPPRLPRPRPRPIATPRP | -0.0109
RRIRFRPPRLPRPRPRPICCPRP | -0.134
RRIRFRPPRLPRPRPRPICNPRP | -0.424
RRIRFRPPRLPRPRPRPICPPRP | -0.208
RRIRFRPPRLPRPRPRPIFDPRP | -0.268
RRIRFRPPRLPRPRPRPIGGPRP | 0.14
RRIRFRPPRLPRPRPRPIGHPRP | -0.115
RRIRFRPPRLPRPRPRPIHDPRP | -0.211
RRIRFRPPRLPRPRPRPIHSPRP | -0.895
RRIRFRPPRLPRPRPRPIINPRP | -0.869
RRIRFRPPRLPRPRPRPIKKPRP | 0.0144
RRIRFRPPRLPRPRPRPIKTPRP | -0.0134
RRIRFRPPRLPRPRPRPIKYPRP | -0.335
RRIRFRPPRLPRPRPRPINEPRP | -0.11
RRIRFRPPRLPRPRPRPIPVPRP | 0.0949
RRIRFRPPRLPRPRPRPIRMPRP | -0.191
RRIRFRPPRLPRPRPRPIRYPRP | -0.125
RRIRFRPPRLPRPRPRPISYPRP | -0.778

Sequence | shrunken log2 fold change
RRIRFRPPRLPRPRPRPITEPRP | -0.0279
RRIRFRPPRLPRPRPRPITIPRP | -0.195
RRIRFRPPRLPRPRPRPITSPRP | -0.178
RRIRFRPPRLPRPRPRPITTPRP | -0.198
RRIRFRPPRLPRPRPRPIWAPRP | 0.0219
RRIRFRPPRLPRPRPRPKAEPRP | 0.00911
RRIRFRPPRLPRPRPRPKANPRP | 0.00613
RRIRFRPPRLPRPRPRPKEAPRP | 0.084
RRIRFRPPRLPRPRPRPKFLPRP | -0.283
RRIRFRPPRLPRPRPRPKGKPRP | 0.195
RRIRFRPPRLPRPRPRPKGVPRP | 0.0142
RRIRFRPPRLPRPRPRPKHMPRP | -0.52
RRIRFRPPRLPRPRPRPKHSPRP | -0.434
RRIRFRPPRLPRPRPRPKINPRP | -0.385
RRIRFRPPRLPRPRPRPKKQPRP | 0.0157
RRIRFRPPRLPRPRPRPKKTPRP | 0.0466
RRIRFRPPRLPRPRPRPKMFPRP | -0.323
RRIRFRPPRLPRPRPRPKMQPRP | -0.0373
RRIRFRPPRLPRPRPRPKNMPRP | -0.724
RRIRFRPPRLPRPRPRPKPLPRP | 0.433
RRIRFRPPRLPRPRPRPKQEPRP | 0.246
RRIRFRPPRLPRPRPRPKQTPRP | 1.01
RRIRFRPPRLPRPRPRPKQWPRP | 0.133
RRIRFRPPRLPRPRPRPKRCPRP | 0.383
RRIRFRPPRLPRPRPRPKREPRP | 0.0359
